From the nanobody polyreactivity screen of Harvey et al. (2022)

Test: yeast display, Sf9 membrane polyspecificity reagent, FACS + sequencing; frameworks hold sequencing errors
Method in brief: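 Genes from sorted yeast were amplified by colony PCR, read by MiSeq 2 × 250 sequencing and filtered on CDR length. These cells carried a synthetic nanobody library in Saccharomyces cerevisiae BJ5465 and were sorted by FACS into low and high (top ~1%) gates on anti-HA and streptavidin fluorescence. Polyreactivity is labelled according to the gate of origin.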

Row | Sequence | polyreactivity (PSR sort gate)
1 | QVQLVESGGGLVQAGGSLRLSCGASGTIFDYYVMGWYRQAPVKERELVAAISWSGASTYYADSVKGRFTISRDNAKNTVYLQMNSLKPDDTAVYYCAADYGVNTLIDYDYWGQGTQVTVSS | low polyreactivity
2 | QLQLVESGGGLVQAGGSLRLSCAPSGLTFGRYAMGGYRHAPGKERELVAAITARVGRTYYADSVKGRFTISRDNEKNTVYLQMNSLKPEDTAVYYCAAGPSYFWYSHEKYDYWGQGTQVTVSS | high polyreactivity
3 | QVQLVESGGGLVQAGGSLRLSCAASGSTFYSYVIGWYRQAPGRESELVAVITSGGSTTYADSVNGRFTISRDNAKNTVYLEMNSLIPEDTAVYYCNAAYYNTDTQKVTFDYWGQGTQVTVSS | low polyreactivity
4 | QVQLVESGGGLVQAGGSLRLSCAASGRTFYQYAMGWYRQAPGKERELVAAISKSGRRTYYADSVKGRFTISRDNAKNTVYLQINSLKPEDTAVYYCNAARYLTRWGRFYYWGEGTQVTVSS | high polyreactivity
5 | QVQLVESGGGLVQAGGSLRLSCAASGRTFPTYAMGWYRQAPGKERELVATISYNGGRTYYADSVKGRFTISRDNAKNTVYLQMNSLKPEDTAVYDCNAVVYVVGDFDYWGQGTQVTVSS | high polyreactivity
6 | QVQLVEACGGLVQAGGSLRLSCAASRSIFPYNAMGWYRQAPGKDRELVATMSSGGSTNYADSVKGRFTISRDNAKNTVYLQKNSLKPEDTAVYYCNAEAAYYPLWMDYWGQGTQVTVSS | low polyreactivity
7 | QVQLVESGGGLVQAGGSLRLSCAASGFTFYQNAMGWYRQAPGKEREFVAAISRRGGSTYYADSVKGRFTISRDNAKNTVYLQMNSLKPEDTAVYYCAADYKRKSDGDYWGQGTQVTVSS | high polyreactivity
8 | QVQLVESRGGLVQAGGSLRLSCAASGSIFPYYAMGWYRQAPGKERELVAAISLSGVSTTYADSVKGRFTISRDNAKNTVYLQMNSLKPVDTAVYYCAAKSFWSRYVGGYYWGQGTQVTVSS | high polyreactivity
9 | QVQLVESAGGLVQAGGSLRLSCAASGSTFGENAMGWYRQAPGKERELVAAISDSGGDTYYADSVKGRFTISRDNAKYTVYLQMNSLKPEDTAVYYCAADRYGYWYAYYSWGQGTLVTVSS | low polyreactivity
10 | QVQLVESGGGLVQAGGSLRLSCADSGSIIYYAMGWNRQAPGKEREFVAAITKSGGSTYYADSVKGRFTISRDNAKNTVYLQMNSLKPEDTAVYYCAARGTWAGFYYWGQGTQVTVSS | high polyreactivity
11 | QVQLVESGGGLVQAGGSLRLSCAASGRIFGVYAMGWYRQAPGKERELVAAISSTGGSTYYADSVKGRFTISRDNAKNTVYLQMNSLKPEDTAVYYCEYDYWGQGTQVTVSS | low polyreactivity
12 | QVQLVESGGGLVQAGGSLRLSCAASGYTFRRYAMGWYRQAPGKERELVAAITSRGGSTYYADSVKGRFTISRDNAKNTVYLQMNSLKPEDTAVYYCAADASAYSVLTRDYWGQGTQVTVSS | high polyreactivity
13 | QVQLVESGGGLVQAGGSLRLSCAASGFIFGLNAMGWYRQPPGKERELVAVISGRGRTYYADSVKGRFTISRDNAKNTVYLQMNSLKPEDTAVYYCNAVSSYGYDYWGQGTQVTVSS | high polyreactivity
14 | QVQIVESGGGLVQAGGSLRLSCAASGFIFYFYAMGWYRQAPGKERELVATITRRDDSTYYADSVKGRFTISRDNAKNTVYLQMNSLKPEDTAVYYCNADFWLLSEYDYWGQGTQVTVSS | low polyreactivity
15 | QVQLVESGGGLVQAGGSLRLSCAASGRTYIYNAMGWYRQAPGKERELVAAISFRGGSTYYADSVKGRFTISRDNAKNTVYLQMNSLKPEDTAVYYCNAVRFYRYGWGQGTQVTVSS | high polyreactivity
16 | QVQLVESGGGLVQAGGSLRLSCAASGFIFFFYAMGWYRQAPGKERELVASISWNGGSTYYADSVKGRFTISRDNAKNTVYLQMNSLKPEYTAVYYCAVYSFRERVKAYRIYDYWGQGTHVTVSS | low polyreactivity

Row | Sequence | polyreactivity (PSR sort gate)
17 | QVQLVESGGGLVQAGGSLRLSCAASGIIFSPYAMGLYRQAPGKERELVAAISYSGGSTYYADSVKGRFTISRDNAKNTVYLQMNSLKPEDTAVYYCAVVYSYYLAVLGYCDYDYWGQGTQVTVSS | low polyreactivity
18 | QVQLVESGGGLVQAGGSLRLSCAASGSILGANAMGWYRQAPGKERELVAAISYRGGSTYYADSVKGRFTISRDNAKNTVYLQMNSLKPEDTAVYYCAAVVPTGYDYWGQGTQVTVSS | low polyreactivity
19 | QVQLVESGGGLVQAGGSLRLSCAASGSIFSAYAMGWSRQAPGKERELVASITTDGGITYYADSVKGRFTISRDNAKNTVYLQMNSLKPEDTAVYYCAVLQYYYPYYYWGQGTQVTVSS | low polyreactivity
20 | QVQLVESAGGLVQAGGSLRVRCAASGGIFSGNDMGWYRQAPGKERELVATITSDGSTNYADSVKGRFTISRDNAKNTVYLQMNSLKPEDTAVYYCAADGLYWWMYYWGQGTQVTVSS | low polyreactivity
21 | QVQLVESGGGLVQAGGSLRLSCAASGRTFKYYAMGWYRQAPGKERELVAAITASDGSTYYADSVKGRFTISRDNAKNTVYLQMNSLKPEDTAVYYCAAVPYRYTYDYWGQGTQVTVSS | high polyreactivity
22 | QVQLVESGGGLVQAGGSLRLSCAASGRIFYRNAMGWYRQAPGKERELVAAISSGGITNYADSVKGRFTISRDNAKNTVYLQMNSLKPEDTAVYYCNADAYRLPGYTFGYWGQGTQVTVSS | high polyreactivity
23 | QVQLVESGGGLVQAGGSLRLSCAASGGTFSTNAMGWYRQAPGKERELVAAISLSGGRTYADSVKGRFTISRDNAKNTVYLQMNSLKPEDTAVYYCNADSAGITRARSELDYWGQGTQVTVSS | low polyreactivity
24 | QVQLVESGGGLVQAGGSLRLICAASGSTFERYAMGWYRQAPGKERELVAAIDSRSGSTSYADSVKGRFTISRDNAKNTVYLQMNSLKPEDTAVYYCAKDYYRPWYDRPLGYDYWGQGTQVTVSS | low polyreactivity
25 | QVQLVESGGGLVQAGGSLRLSCAASGRTFSAYAMGWYRQAPGKERELVAAISRRGGSTYYADSVKGRFTISRDNAKNTVYLQMNSLKPEDTAVYYCAAKIYYRSRAEMDWGQGTQVTVSS | high polyreactivity
26 | QVQLVESGGGLVQAGGSLRLSCAASGSTFAGYVMGWYRQAPGKERELVADISGRGGNTYYADSVKGRFTISRDNAKNTVYLQMNRLKPEDTAVYYCASILSRRYGYWGQGTQVTVSS | high polyreactivity
27 | QVQLVESGGGLVQAGGSLRLSCAASGFIFPFNAMGWYRQAPGKERELVAAITSGGSTYYADSVKGRFTISRDNAKNTVYLQMNSLKPEDTAVYYCAKSWDRIGIWYRLEYWGQGTQVTVSS | low polyreactivity
28 | QDQLVESGGGTVQAGGSLRISCAASGSILRSNAMGWYRQAPAKERELVAAITQSGGSTFYADSVKGRFTITRDNAKNTVYLQMNSLKPEDTAVYYWGQGTQVTVSS | low polyreactivity
29 | QVQLVESGGCLVQAGGTLRLSCAASGFTFGNNGMGWYRQAPGKERELVATISWSGGSTDADSVKGRFTISRDNAKNTVYLQMNSLKPEDTAVSYCAARPRWYFFSYGRQDDGSWGQGTQVTVSS | low polyreactivity
30 | QVQLVESGGGLVQAGGSLRLSCDASGGIFFYNTLRCSRQAPGKERELVAAITTNGDSTYYADSVKGRFTISRDNAKYTVYLQMNSLKPVDTAVYYCATPLELFASFSFSHYVYLFDSWGQGTQVNVSS | low polyreactivity
31 | QVQLVESGGGLVQAGGSLRLSCAASGSIFTNNAMGWYRQAPGKERELVAGINISGDSTYYADSVKGRFTISRDNAKNTVYLQMNSLKPEDTAVYYCAAGDGYAGIYDYWGQGTQVTVSS | low polyreactivity
32 | QVHLVESGGGLVQAGGSLRLSCAASGNIITSYAMGWYRQAPGKERELVAAISSGGTTHYADSVKGRFTISRDNAKNTVYLQMNSLKPEDTAVYYCAARQVSYYKANDSWVRSEYDYWGQGTQVSVSS | low polyreactivity
